# Assay results from patent US20230106715A1 (BIOSION, published 2023).
# T1: mouse Siglec15-his protein (mouse)
# T1 construct: In house made
# T1 chain: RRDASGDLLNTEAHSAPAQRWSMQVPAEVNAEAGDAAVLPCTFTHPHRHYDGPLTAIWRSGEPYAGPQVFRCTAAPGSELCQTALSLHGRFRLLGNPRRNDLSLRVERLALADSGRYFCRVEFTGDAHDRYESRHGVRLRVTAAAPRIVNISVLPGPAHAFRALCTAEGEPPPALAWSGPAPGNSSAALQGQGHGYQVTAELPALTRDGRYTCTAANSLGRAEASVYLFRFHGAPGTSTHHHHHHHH
# T2: human Siglec15 on human-siglec15-2D3-1E1 cells (human, UniProt Q6ZMC9 20-328)
# T2 construct: whole, on cells; Transfected HEK-293 cells; also called cell surface human Siglec15
# T2 sequence (looked up): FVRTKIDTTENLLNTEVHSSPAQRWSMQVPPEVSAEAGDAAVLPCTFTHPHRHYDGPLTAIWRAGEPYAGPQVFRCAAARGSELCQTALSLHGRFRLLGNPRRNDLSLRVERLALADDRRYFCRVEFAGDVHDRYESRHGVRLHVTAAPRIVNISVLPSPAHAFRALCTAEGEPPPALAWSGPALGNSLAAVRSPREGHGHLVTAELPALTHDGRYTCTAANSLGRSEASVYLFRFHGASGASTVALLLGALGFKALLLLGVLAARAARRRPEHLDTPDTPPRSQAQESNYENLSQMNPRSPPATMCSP
# T3: human Siglec15-mouse Fc protein (human)
# T3 construct: In house made
# T3 chain: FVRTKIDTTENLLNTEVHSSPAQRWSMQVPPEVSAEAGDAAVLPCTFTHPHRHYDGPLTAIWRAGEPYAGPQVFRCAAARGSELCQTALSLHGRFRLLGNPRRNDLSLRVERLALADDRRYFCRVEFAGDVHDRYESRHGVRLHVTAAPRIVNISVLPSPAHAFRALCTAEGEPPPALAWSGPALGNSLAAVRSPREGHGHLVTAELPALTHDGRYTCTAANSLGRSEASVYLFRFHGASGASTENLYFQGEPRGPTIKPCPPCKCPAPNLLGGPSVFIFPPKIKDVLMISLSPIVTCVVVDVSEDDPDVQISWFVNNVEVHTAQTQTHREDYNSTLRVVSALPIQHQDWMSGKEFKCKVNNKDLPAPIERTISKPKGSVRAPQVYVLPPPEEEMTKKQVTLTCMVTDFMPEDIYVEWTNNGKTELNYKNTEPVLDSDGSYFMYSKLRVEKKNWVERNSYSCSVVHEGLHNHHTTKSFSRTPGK
# Columns and labels:
# [1] = biological target: T1, mouse Siglec15-his protein; test: indirect ELISA on coated mouse Siglec15-his
# Protocol: The anti-Siglec15 antibodies' cross-reactions to cynomolgus or mouse Siglec15 proteins were measured. Briefly, 96-well micro plates were coated with 100 μl of 2 μg/ml cynomolgus Siglec15-his protein (in house made with SEQ ID NO: 21), or 2 μg/ml mouse Siglec15-his protein (in house made with SEQ ID NO: 22) in carbonate/bicarbonate buffer (pH 9.6) for 2 hours at 37° C. ELISA plates were washed once with wash buffer (PBS+0.05% v/v Tween-20, PBST) and then blocked with 200 μl/well blocking buffer (5% w/v non-fatty milk in PBST) overnight at 4° C. Plates were washed 4 times and incubated with 100 μl serially diluted anti-Siglec15 antibodies of the disclosure or controls (starting at 66.7 nM, 5-fold serial dilution in PBST with 2.5% w/v non-fatty milk) for 40 minutes at 37° C. […] The reaction was stopped 4 minutes later at room temperature with 50 μl 1M H₂SO₄, and the absorbance of each well was read on a microplate reader using dual wavelength mode with 450 nm for TMB and 630 nm as the reference wavelength, then the OD (450-630) values were plotted against antibody concentration. Data was analyzed using Graphpad Prism software and EC₅₀ values were reported.
# [2] = biological target: T2, human Siglec15 on …; test: cell based binding FACS on human-siglec15-2D3-1E1 cells
# Protocol: The binding activities of the anti-Siglec15 antibodies to cell surface Siglec15 were tested by flow cytometry (FACS), using in-house prepared human-siglec15-2D3-1E1 cells expressing human Siglec15 (amino acid residues Met1-Pro328 of uniprot #Q6ZMC9) on cell membranes. The human-siglec15-2D3-1E1 cells were prepared by transfecting HEK-293 cells (ATCC #CRL-1573) with pCMV-T-P plasmids inserted with human Siglec15 coding sequence between EcoRI and XbaI sites, following the instruction of lipofectamine 3000 transfection reagent (Thermo Fisher). The human-siglec15-2D3-1E1 cells were harvested from cell culture flasks, washed twice and re-suspended in phosphate buffered saline (PBS) containing 2% v/v Fetal Bovine Serum (FACS buffer). 2×10⁵ cells per well in 96 well-plates were incubated in 100 μL serially diluted anti-Siglec15 antibodies or controls (starting at 66.67 nM, 5-fold serial dilution) in FACS buffer for 40 minutes on ice. […] Following a 40-minute incubation at 4° C. in dark, cells were washed three times and re-suspended in FACS buffer. Fluorescence was measured using a Becton Dickinson FACS Canto II-HTS equipment. Data was analyzed using Graphpad Prism software and EC₅₀ values were reported.
# [3] = biological target: T3, human Siglec15-mouse Fc protein; test: cell based blocking FACS: human Siglec15-mouse Fc in solution, blocked ligand human LRRC4C on LRRC4C-3F12-1B9 cells
# Protocol: The activities of the anti-Siglec15 antibodies to block binding of Siglec15 protein to cell surface LRRC4C were evaluated by Flow Cytometry (FACS), using in house made LRRC4C-3F12-1B9 cells. Briefly, HEK-293 cells (ATCC #CRL-1573) were transfected with pCMV-T-P plasmid constructs with the nucleotide sequence encoding human LRRC4C (amino acid residues Met1-Ile640 of uniprot #Q9HCJ2) inserted between EcoRI and XbaI, following the instruction of lipofectamine 3000 transfection reagent (Thermo Fisher). A stable cell named LRRC4C-3F12-1B9 was chosen for subsequent cell based ligand-blocking assay.
# Briefly, the anti-Siglec15 antibodies of the disclosure or controls were diluted with human Siglec15-mouse Fc protein (prepared in-house with SEQ ID NO: 26, 8 μg/ml […] in FACS buffer), starting at 66.67 nM with a 5-fold serial dilution, and incubated at room temperature for 40 minutes. Then, LRRC4C-3F12-1B9 cells were harvested from cell culture flasks, washed twice and re-suspended in PBS containing 2% v/v Fetal Bovine Serum (FACS buffer). Then, 1×10⁵ cells per well in 96 well-plates were incubated in 100 μL of the antibody/Siglec15-mouse Fc mixtures for 40 minutes at 4° C. […] Cells were washed twice and re-suspended in FACS buffer. Fluorescence was measured using a Becton Dickinson FACS Canto II-HTS equipment. Data was analyzed using Graphpad Prism software and IC₅₀ values were reported.
binder,measurement,setting,value
"anti-Siglec15 benchmark (ch5G12) (antibody, human IgG1, kappa, V domains shown, ch5G12 (US 20190202912A1); also called BM; Siglec15-ch5G9) VH: QVQLQQPGAELVKPGASVKMSCKASGYTFTSYWITWVIQRPGQGLEWIGDIYCGSDTMHYNEKFKNKATLTVDTSSSTAYMQLSSLTSEDSAVYYCARWWDYGSSYDYFDYWGQGTTLTVSS VL: DIKMTQSPSSMYASLGERVTITCKASQDINSYLSWFQQKPGKSPKTLIYRANRLVDGVPSRFSGSGSGQDYSLTISSLEYEDMGIYYCLQYDEFPYTFGGGTKLEIKR",EC50,[1],0.402 nM
same,EC50,[2],15.5 nM
same,IC50,[3],0.707 nM
